Laboratory results reported in paper PMC6783537, “Structural basis of the activation of type 1 insulin-like growth factor receptor” (Nature Communications, 2019).

Molecular target: the molecule itself
Experiment: cryo-EM structure; purified MmIGF1R and HsIGF1 mixed at molar ratio 1:2, 1 h at 4 °C, complex purified by SEC in 20 mM Hepes-Na pH 7.4, 200 mM NaCl, 0.03% DDM; 4.3 Å

B1: full-length mouse IGF1R (MmIGF1R), residues 1–1262, Y951A, D1107N (receptor)
chain: not shown
notes: Mouse type 1 insulin-like growth factor receptor with C-terminal tail truncation and kinase dead mutation, residues 1–1262, Y951A, D1107N; Disulfide-linked covalent dimer of two protomers; it is written here as one chain per protomer; also called type 1 insulin-like growth factor receptor; not shown: Tsi3, C-terminal, cleaved
  stoichiometry N: 2
